Reference: PMC4279225 (Molecular Biology of the Cell, 2015)
Blank lines part the entries; values can stand above or below the binder they belong to.

Legend:
[1] = target: T1, Recombinant wild-type septin complex Pnut-Sep2-Sep1 (His tag removed) (Drosophila melanogaster, UniProt P40797 1-539; P54359 1-419; P42207 1-361); assay: negative-stain EM with Ni-NTA Nanogold labelling
T1 sequence (looked up) 1: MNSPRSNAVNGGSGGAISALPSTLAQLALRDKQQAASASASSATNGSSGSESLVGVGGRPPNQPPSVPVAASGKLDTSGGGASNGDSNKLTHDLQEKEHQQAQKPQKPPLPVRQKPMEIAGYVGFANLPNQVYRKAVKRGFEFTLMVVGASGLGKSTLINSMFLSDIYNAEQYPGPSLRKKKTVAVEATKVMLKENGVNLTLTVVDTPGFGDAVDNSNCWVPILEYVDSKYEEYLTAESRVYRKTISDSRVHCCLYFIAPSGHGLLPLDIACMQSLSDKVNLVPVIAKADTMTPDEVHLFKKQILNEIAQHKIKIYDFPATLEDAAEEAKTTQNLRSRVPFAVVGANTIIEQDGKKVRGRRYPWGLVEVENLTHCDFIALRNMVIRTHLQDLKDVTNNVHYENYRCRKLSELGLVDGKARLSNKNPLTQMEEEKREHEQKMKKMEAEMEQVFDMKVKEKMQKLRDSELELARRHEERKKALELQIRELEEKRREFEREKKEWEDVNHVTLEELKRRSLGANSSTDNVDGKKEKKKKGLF
T1 sequence (looked up) 2: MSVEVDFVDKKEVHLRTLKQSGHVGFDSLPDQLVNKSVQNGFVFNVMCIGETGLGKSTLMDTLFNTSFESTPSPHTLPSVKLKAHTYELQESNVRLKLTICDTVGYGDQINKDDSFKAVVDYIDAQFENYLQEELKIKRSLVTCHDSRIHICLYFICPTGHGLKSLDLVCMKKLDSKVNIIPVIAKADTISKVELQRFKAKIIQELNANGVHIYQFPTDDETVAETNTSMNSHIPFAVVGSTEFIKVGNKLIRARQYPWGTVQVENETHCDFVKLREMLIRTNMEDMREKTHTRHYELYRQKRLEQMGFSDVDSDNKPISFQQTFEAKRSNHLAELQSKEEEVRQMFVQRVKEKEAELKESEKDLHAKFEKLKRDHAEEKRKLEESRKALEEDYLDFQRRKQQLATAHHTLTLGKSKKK
T1 sequence (looked up) 3: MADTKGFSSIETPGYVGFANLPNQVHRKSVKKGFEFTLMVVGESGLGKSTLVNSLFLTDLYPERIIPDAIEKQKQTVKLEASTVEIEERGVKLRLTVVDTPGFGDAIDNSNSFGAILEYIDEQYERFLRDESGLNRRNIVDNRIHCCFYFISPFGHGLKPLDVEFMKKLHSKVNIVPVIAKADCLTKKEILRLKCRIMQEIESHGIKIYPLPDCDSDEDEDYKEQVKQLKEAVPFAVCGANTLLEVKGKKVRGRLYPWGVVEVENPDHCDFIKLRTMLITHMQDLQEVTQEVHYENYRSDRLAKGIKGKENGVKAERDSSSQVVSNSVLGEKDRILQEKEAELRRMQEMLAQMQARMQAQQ

GST-Orc6, wild type = target: T2, GST-Orc6, wild type (Drosophila, UniProt Q9Y1B2 1-257); assay: pull-down
T2 sequence (looked up): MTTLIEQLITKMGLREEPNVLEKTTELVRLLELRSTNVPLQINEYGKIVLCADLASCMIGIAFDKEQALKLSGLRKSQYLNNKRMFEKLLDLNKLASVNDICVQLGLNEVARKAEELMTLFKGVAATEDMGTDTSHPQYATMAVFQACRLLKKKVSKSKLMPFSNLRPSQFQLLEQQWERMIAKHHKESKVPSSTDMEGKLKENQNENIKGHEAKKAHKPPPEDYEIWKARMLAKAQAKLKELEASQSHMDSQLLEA

His-GFP-Orc6, wild type = target: T3, His-GFP-Orc6, wild type (Drosophila, UniProt Q9Y1B2 1-257); assay: fluorescence polarisation
T3 sequence (looked up): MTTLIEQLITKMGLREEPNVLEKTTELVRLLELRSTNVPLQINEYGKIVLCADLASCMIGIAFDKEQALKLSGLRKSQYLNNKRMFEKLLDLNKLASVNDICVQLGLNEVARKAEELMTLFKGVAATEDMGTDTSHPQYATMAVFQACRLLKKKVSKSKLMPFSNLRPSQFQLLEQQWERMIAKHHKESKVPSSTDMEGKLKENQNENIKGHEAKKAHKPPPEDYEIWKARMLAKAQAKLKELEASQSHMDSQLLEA

SEC = target: the molecule itself; assay: SEC

binding result [1]: binds
B1: His-Orc6 Δ(1–186), N-terminus deletion (domain or fragment, Drosophila, UniProt Q9Y1B2 187-257, looked up)
chain: KESKVPSSTDMEGKLKENQNENIKGHEAKKAHKPPPEDYEIWKARMLAKAQAKLKELEASQSHMDSQLLEA

binding result (GST-Orc6, wild type): binds
binding result (His-GFP-Orc6, wild type): binds
B2: His-Orc6 Δ(200–257), Orc6 with truncated C-terminus (domain or fragment, Drosophila, UniProt Q9Y1B2 1-199, looked up)
chain: MTTLIEQLITKMGLREEPNVLEKTTELVRLLELRSTNVPLQINEYGKIVLCADLASCMIGIAFDKEQALKLSGLRKSQYLNNKRMFEKLLDLNKLASVNDICVQLGLNEVARKAEELMTLFKGVAATEDMGTDTSHPQYATMAVFQACRLLKKKVSKSKLMPFSNLRPSQFQLLEQQWERMIAKHHKESKVPSSTDMEG
binding result (SEC): binds

stoichiometry N [1]: 2.26 ± 0.34 Nanogold particles (His-Orc6 molecules) per septin hexamer
B3: His-Orc6, wild type, Orc6-wt (1–257) (natural protein, Drosophila, UniProt Q9Y1B2 1-257, looked up)
chain: MTTLIEQLITKMGLREEPNVLEKTTELVRLLELRSTNVPLQINEYGKIVLCADLASCMIGIAFDKEQALKLSGLRKSQYLNNKRMFEKLLDLNKLASVNDICVQLGLNEVARKAEELMTLFKGVAATEDMGTDTSHPQYATMAVFQACRLLKKKVSKSKLMPFSNLRPSQFQLLEQQWERMIAKHHKESKVPSSTDMEGKLKENQNENIKGHEAKKAHKPPPEDYEIWKARMLAKAQAKLKELEASQSHMDSQLLEA
stoichiometry N (SEC): 2
